Data taken from paper PMC8263621, “A simple label-free electrochemical sensor for sensitive detection of alpha-fetoprotein based on specific aptamer immobilized platinum nanoparticles/carboxylated-graphene oxide”.

Target: T1, alpha-fetoprotein (AFP) (UniProt P02771 19-609)
T1 sequence: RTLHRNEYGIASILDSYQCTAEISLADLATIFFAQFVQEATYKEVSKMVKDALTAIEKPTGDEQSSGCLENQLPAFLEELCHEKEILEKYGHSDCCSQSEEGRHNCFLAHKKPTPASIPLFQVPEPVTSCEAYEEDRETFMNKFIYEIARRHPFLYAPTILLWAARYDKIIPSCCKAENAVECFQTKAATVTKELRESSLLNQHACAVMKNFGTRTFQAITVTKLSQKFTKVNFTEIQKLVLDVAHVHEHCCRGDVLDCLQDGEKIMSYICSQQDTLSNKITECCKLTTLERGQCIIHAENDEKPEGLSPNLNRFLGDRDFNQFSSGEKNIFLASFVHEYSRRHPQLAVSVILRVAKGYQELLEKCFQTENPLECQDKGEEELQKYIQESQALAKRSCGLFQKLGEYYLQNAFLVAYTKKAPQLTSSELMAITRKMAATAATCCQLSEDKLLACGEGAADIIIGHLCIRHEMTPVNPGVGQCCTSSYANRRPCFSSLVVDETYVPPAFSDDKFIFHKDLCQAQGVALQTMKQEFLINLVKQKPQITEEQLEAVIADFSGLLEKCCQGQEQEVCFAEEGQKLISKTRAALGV
Assay: electrochemical aptasensor (CV/SWV); aptamer immobilized on PtNPs/GO-COOH/SPGE; 3 mM hydroquinone probe; LOD 1.22 ng/mL, linear 3-30 ng/mL (not a Kd); 10 mM PBS pH 7.4, 3 mM hydroquinone for readout; BSA-blocked electrode (0.25% w/v); AFP incubation 45 min at room temperature
Settings: protein: commercial

B1: AFP aptamer (ssDNA)
DNA: GTGACGCTCCTAACGCTGACTCAGGTGCAGTTCTCGACTCGGTCTTGATGTGGGTCCTGTCCGTCCGAACCAATC
modifications: 5'-NH2
- binding result: binds
